Where two headings read alike, the source gives them in different places.
T1: UHRF1 SRA domain (NP95) (mouse, UniProt Q8VDF2 419-628)
T1 sequence: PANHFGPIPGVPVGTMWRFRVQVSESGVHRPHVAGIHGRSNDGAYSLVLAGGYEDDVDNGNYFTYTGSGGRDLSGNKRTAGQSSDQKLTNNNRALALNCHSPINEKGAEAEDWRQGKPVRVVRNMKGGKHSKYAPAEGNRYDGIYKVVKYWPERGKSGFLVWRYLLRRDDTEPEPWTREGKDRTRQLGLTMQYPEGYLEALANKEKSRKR

B1: unmethylated CpG 12-bp duplex (dsDNA)
DNA 1: AACTGCGCAGTT
DNA 2: AACTGCGCAGTT
B2: hemimethylated CpG 12-bp duplex (dsDNA)
DNA 1: TCCATGCGCTGAC
DNA 2: GTCAGCGCATGG
modifications: 5-methylcytosine at position 6 of strand 2 (…); strand 1 unmethylated

Legend:
UHRF1 SRA domain (NP95) [1] = target: T1, UHRF1 SRA domain (NP95); assay: X-ray crystallography
UHRF1 SRA domain (NP95) [2] = target: T1, UHRF1 SRA domain (NP95); assay: X-ray crystallography; remark: listed apart in the source

Binder	binding result (UHRF1 SRA domain (NP95) [1])	binding result (UHRF1 SRA domain (NP95) [2])
B1	binds	–
B2	–	binds

From publication PMC2602803
